Columns and labels:
[1] = test system: patient derived HSV-1 isolate resistant towards Acyclovir, Foscarnet and Cidovovir; assay: Treatment of NOD/SCID mice infected with multi-resistant patient HSV-1 isolate; assay type: in vivo; conditions: for protection against lethal encephalitis: 15 mg/kg i.v. at 24 h, 40 h and 56 h post infection
Text: Mice receiving twice daily standard treatment with Acyclovir all died within 28 days.
Furthermore, the humanized mAb 2c-V1 also confers protection from viral dissemination and lethal encephalitis in the presence of an established peripheral HSV infection. […] In contrast, mice receiving Acyclovir all died (FIG. 12).

human DNA polymerase = conditions: background statement; cited from earlier work
HSV-1 F [2] = assay: Post-exposure treatment of NOD/SCID mice with established HSV-1 infection; assay type: in vivo; conditions: 15 mg/kg i.v. at 24 h, 40 h and 56 h post infection
Description: Infected animals per group n=7.
Vaginal virus titers of antibody or control treated mice were determined from vaginal irrigations cultured on Vero cell monolayers. Error bars indicate standard deviation.
(§1) Anesthetized female nonobese diabetic/severe combined immunodeficient (NOD-SCID) mice (NOD.CB17-Prkdc^scid/J, Charles River Laboratories, Research Models and Services, Sulzfeld, Germany), 6-8 weeks of age, were challenged intravaginally with 20 μl inoculum of 1×10^6 TCID50 HSV-1 F per mouse. Skin glue (Epiglu, Meyer-Haake Medical Innovations, Wehrheim, Germany) was applied onto the vulva to prevent discharge of the virus inoculum. […] Mice were examined daily after viral inoculation for loss of weight, vulvitis/vaginitis (redness, mucopurulent discharge and signs of inflammation) and neurological disease. Mice displaying any of theses symptoms were sacrificed immediately. […] Mice were assessed for infection by determination of virus titers from vaginal irrigations obtained on days 1, 2, 4, 6 and 8 after infection and at the time of death using the endpoint dilution assay on Vero cells. Viral loads in organs (spleen, adrenal gland, lung heart, liver, kidney, spinal cord, and brain) of sacrificed mice were determined after homogenization of organs by titration on Vero cell monolayers as described elsewhere (41). Each test and control group contained 9-10 animals with detectable HSV-1 infection.

[3] = target: T1, glycoprotein B on surface of HSV-1 F infected Vero cells (Human herpesvirus 1, UniProt P06436); assay: Affinity constants (KD) by flow cytometry on HSV-1 F infected Vero cells; assay type: binding
T1 construct: expressing the gB-protein as membrane associated glycoprotein on the cell surface during the natural HSV replication cycle; endogenous in cells; host or cells: Vero cells infected with HSV-1 F (MOI 3); gB is made by the virus in the infected cell

HSV-1 F [4] = assay: Cell-to-cell spread assay in Vero cell monolayers; assay type: cell-based; conditions: 500 nM, 48 h
Description: Vero cells grown to confluency on glass cover slips in 24-weel tissue culture plates are infected for 4 h at 37° C. with a constant virus amount of 400 TCID50/well. One median tissue culture infective dose (1 TCID50) is the amount of a cytopathogenic agent, such as a virus, that will produce a cytopathic effect in 50% of the cell cultures inoculated. The virus inoculum is subsequently removed, the cells washed twice with PBS and further incubated for 2 days at 37° C. in 1 ml DMEM, 2% FCS, Pen/Strep containing an excess of either different anti-HSV antibodies or polyclonal anti-HSV control serum in order to prevent viral spreading via the supernatant Viral antigens of HSV-infected cells are detected with a fluorescence labelled polyclonal goat-anti-HSV-serum (BETHYL Labolatories, Montgomery, Tex. USA, Catalog No. A190-136F, Lot No. A190-136F-2).
Two days after infection spreading of the virus was detected with fluorescence labeled polyclonal goat-anti-HSV serum using a Leica DM IRE2 confocal microscope at 40-fold magnification.
For spreading within a host HSV uses two mechanisms: release of cell-free particles and direct, cell-to-cell spread. […] Viral antigens were detected by staining of HSV-1 infected cell monolayers with FITC-conjugated polyclonal goat-anti-HSV serum (BETHYL, Montgomery, Tex., USA) diluted 1:100 in blocking buffer. […]

[5] = target: T2, gB present on the surface of HSV-1 infected Vero cells (Human herpesvirus 1, UniProt P06436); assay: Competition study with mAb 2c by flow cytometry; assay type: binding; conditions: increasing concentrations, then 100 nM mAb 2c
T2 construct: endogenous in cells; host or cells: Vero cells infected with HSV-1 (3 moi, 20 h)

HSV-1 = assay: Plaque-reduction assay with or without human complement; assay type: cell-based; conditions: 2 μg/ml, with or without 10% human complement
[6] = test system: HSV-1 laboratory strains and clinical isolates; assay: Neutralization of HSV-1 laboratory strains and clinical isolates (FIG. 8); assay type: cell-based
Description: (§2) To determine the titer of mAb h2c-V1 for complete virus neutralization several antibody concentrations were incubated for 1 h at 37° C. with 100 TCID50 of HSV-1 or HSV-2 isolates and incubated for 3 days with Vero cells. MAb hu2c-V1 neutralizes HSV-1 laboratory strains HSV-1 F, HSV-1 324 hv, HSV-1 17 syn^+, HSV-1 TK^− completely at concentrations of 7.8-15.6 nM. HSV-1 clinical isolates are neutralized by mAb h2c-V1 similarly irrespective of their resistance profile. Furthermore, the same neutralization efficiency of mAb hu2c-V1 was shown for strain HSV-2 G and ACV-resistant HSV-2 isolates at concentrations of 31.3-62.5 nM.

HSV-1 F [7] = assay: Passive immunization of NOD/SCID mice 24 h before intravaginal HSV-1 challenge; assay type: in vivo; conditions: 24 h prior to infection
Description: Mice were infected intravaginally with 1×10^6 TCID50/20 μl of the neurovirulent HSV-1 strain F. Infected mice with symptoms of weight loss, vulvitis/vaginitis or neurological diseases were killed, and their organs examined for infectious virus by titration on Vero cell monolayers as described previously. Non-infected mice were killed at day 30. Animals per group n=7.
Animals per group n=7 for PBS, n=9 all other groups.
as §1
Natural killer (NK) cells accumulating at the site of HSV-2 infection in humans (28) are the early source of interferon-γ (45), which plays an essential role for the control of HSV infection (2, 45, 62).

[8] = test system: HSV-2 G and ACV-resistant HSV-2 isolates; assay: Neutralization of HSV-2 strain and isolates (FIG. 8); assay type: cell-based; conditions: 100 TCID50, 3 days
Description: as §2

Nc1nc(=O)c2ncn(COCCO)c2[nH]1 [Acyclovir, 2-Amino-9-(2-hydroxyethoxymethyl)-3H-purin-6-on, reference compound]
outcome of infection ([1]; standard treatment with Acyclovir): all died
time by which all mice died ([1]; twice daily standard treatment): ≤ 28 days
factor by which human DNA polymerase is less susceptible than viral DNA polymerase (human DNA polymerase): 30-50

B1: h2c-V1: humanized mAb 2c variant, CDR grafting onto DP28/DPK13, no backmutations (antibody, V domains shown)
VH: QVTLKESGPALVKPTQTLTLTCTFSGFSLSTSGMSVGWIRQPPGKALEWLAHIWWNNDKYYKPALKSRLTISKDTSKNQVVLTMTNMDPVDTATYYCARIYYGYRPYAMDYWGQGTLVTVSS
VL: DIVMTQTPLSLPVTPGEPASISCRSSQSIVHSNGNTYLEWYLQKPGQSPQLLIYKVSNRFSGVPDRFSGSGSGTDFTLKISRVEAEDVGVYYCFQGSHVPWSFGQGTKVEIKR
protection from lethal outcome of established infection (HSV-1 F [2]): completely protected from the lethal outcome of infection
affinity in comparison to mAb 2c [3]: affinity comparable to the murine mAb 2c
protection against lethal encephalitis ([1]; listed as mAb 2c-V1): prevented lethal encephalitis
protection against lethal encephalitis ([1]; listed as mAb hu2c-V1): significantly protected against lethal encephalitis
inhibition of cell-to-cell spread (HSV-1 F [4]): as efficient as the parenteral mAb 2c
competition with parental mAb 2c for binding [5]: compete with the parental mAb 2c for binding to gB
complement dependence of HSV neutralization (HSV-1): neutralize HSV complement-independent
concentration for complete neutralization ([6]; HSV-1 F, HSV-1 324 hv, HSV-1 17 syn+, HSV-1 TK−, 100 TCID50, 3 days): 7.8 to 15.6 nM
neutralization of patient isolates clinically resistant to ACV, ACV and PFA, or ACV, PFA and CDV ([6]; compared with non-resistant laboratory strains): with the same efficiency as non-resistant laboratory strains or clinical isolates with unknown resistance
protection against lethal encephalitis (HSV-1 F [7]; 15 mg/kg i.v.): fully protected against lethal encephalitis
survival (HSV-1 F [7]; single i.v. dose of 5 mg/kg): prolongs the survival
concentration for complete neutralization [8]: 31.3 to 62.5 nM

Source: US9657088B2, “Anti-HSV antibody” (priority 2009, dated 2017)
